Measured values taken from patent publication US7951562B2, “Method for glycosylating hydroxylysine residues in polypeptides or peptides” (Oulun Yliopisto, priority 2000, dated 2011).
Where “and” joins values, the source holds several entries; their conditions need not be identical. Equal values may be shown once.

B1: C. elegans LH: protein produced from Caenorhabditis elegans lysyl hydroxylase cDNA (amino acids 14-730) (protein)
chain: LLATTITDLPELVVVTVATENTDGLKRLLESAKAFDINIEVLGLGEKWNGGDTRIEQGGGQKIRILSDWIEKYKDASDTMIMFVDAYDVVFNADSTTILRKFFEHYSEKRLLFGAEPFCWPDQSLAPEYPIVEFGKRFLNSGLFMGYGPEMHKILKLKSVEDKDDDQLYYTMIYLDEKLRKELNMDLDSMSKIFQNLNGVIEDVELQFKEDGTPEAYNAAYNTKPLIVHGNGPSKSHLNYLGNYLGNRWNSQLGCRTCGLEVKESEEVPLIALNLFISKPIPFIEEVLQKIAEFDYPKEKIALYIYNNQPFSIKNIQDFLQKHGKSYYTKRVINGVTEIGDREARNEAIEWNKARNVEFAFLMDGDAYFSEPKVIKDLIQYSKTYDVGIIAPMIGQPGKLFTNFWGAIAANGYYARSEDYMAIVKGNRVGYWNVPFITSAVLFNKEKLEAMKDAYSYNKNLDPDMSMCKFARDNGHFLYIDNEKYYGFLIVSDEYAETVTEGKWHPEMWQIFENRELWEARYIHPGYHKIMEPEHVVDQACPDVYDFPLMSERFCEELIEEMEGFGRWSDGSNNDKRLAGGYENVPTRDIHMNQVGFERQWLYFMDTYVRPVQEKTFIGYYHQPVESNMMFVVRYKPEEQPSLRPHHDASTFSIDIALNKKGRDYEGGGVRYIRYNCTVPADEVGYAMMFPGRLTHLHEGLATTKGTRYIMVSFINP
modifications: Caenorhabditis elegans
B2: LH2b: recombinant human lysyl hydroxylase isoform 2, alternatively spliced form b (protein, listed as Homo sapiens)
chain: MGGCTVKPQLLLLALVLHPWNPCLGADSEKPSSIPTDKLLVITVATKESDGFHRFMQSAKYFNYTVKVLGQGEEWRGGDGINSIGGGQKVRLMKEVMEHYADQDDLVVMFTECFDVIFAGGPEEVLKKFQKANHKVVFAADGILWPDKRLADKYPVVHIGKRYLNSGGFIGYAPYVNRIVQQWNLQDNDDDQLFYTKVYIDPLKREAINITLDHKCKIFQTLNGAVDEVVLKFENGKARAKNTFYETLPVAINGNGPTKILLNYFGNYVPNSWTQDNGCTLCEFDTVDLSAVDVHPNVSIGVFIEQPTPFLPRFLDILLTLDYPKEALKLFIHNKEVYHEKDIKVFFDKAKHEIKTIKIVGPEENLSQAEARNMGMDFCRQDEKCDYYFSVDADVVLTNPRTLKILIEQNRKIIAPLVTRHGKLWSNFWGALSPDGYYARSEDYVDIVQGNRVGVWNVPYMANVYLIKGKTLRSEMNERNYFVRDKLDPDMALCRNAREMTLQREKDSPTPETFQMLSPPKGVFMYISNRHEFGRLLSTANYNTSHYNNDLWQIFENPVDWKEKYINRDYSKIFTENIVEQPCPDVFWFPIFSEKACDELVEEMEHYGKWSGGKHHDSRISGGYENVPTDDIHMKQVDLENVWLDFIREFIAPVTLKVFAGYYTKGFALLNFVVKYSPERQRSLRPHHDASTFTINIALNNVGEDFQGGGCKFLRYNCSIESPRKGWSFMHPGRLTHLHEGLPVKNGTRYIAVSFIDP
modifications: His6 tag; CDS (1)..(2277)
notes: recombinant human lysyl hydroxylase isoform 2, alternatively spliced form b

Columns and labels:
Assay type in all cases: biochemical
[1] = tested on: galactosylhydroxylysyl residues in a calf skin gelatin substrate; assay: GGT activity of recombinant proteins expressed in E. coli; settings: E. coli supernatant, 5 h IPTG induction, stored at −70° C. overnight; listed as LH cDNA
[2] = tested on: galactosylhydroxylysyl residues in calf skin gelatin substrate; assay: GGT (glucosyltransferase) activity of recombinant proteins expressed in Sf9 insect cells; settings: Sf9 cells, 72 hours after infection
Excerpt: The glucosyltransferase activity can be assayed as described in Myllylä et al. (1975). The method is based on the transfer of radioactively (tritium) labelled glucose from UDP-glucose to galactosylhydroxylysyl residues in calf skin gelatin substrate and on the specific assay of the product of the enzyme reaction after alkaline hydrolysis.
Commercially available baculovirus transfer vector pFastBacI in the BAC-TO-BAC™ expression system (Life technologies, Inc.) was modified to contain human LH1 signal peptide (Hautala et al., 1992) and His6 tag, and BamHI restriction site for insertion of the desired cDNA, nucleotides 289-2455 of LH3 cDNA (SEQ ID NO 6) (Valtavaara et al., 1998). The construct was confirmed by sequencing. The recombinant protein contains His tag at the amino-terminus after signal peptide cleavage. Insect cells were harvested 0-72 hours after infection and homogenized according to the protocol described earlier (Valtavaara et al., 1997).
Human LH1 signal peptide and His6 tag was inserted to the cDNA constructs of LH1 and LH2. The baculovirus transfer vector pFastBacI was modified so that human LH1 signal sequence followed by nine nucleotides of the amino-terminal end was ligated to the His6 tag followed by nucleotides for BamHI restriction site. The human cDNA sequence (LH1 or LH2) (SEQ ID NO 21, 23 and 25) starting from the likely amino-terminal end of the molecule was ligated to the BamHI site of the construct. Two expression constructs were generated for LH2, LH2a and LH2b (SEQ ID NO 23 and 25), both of them covered the nucleotides from 76 to 2267 (Valtavaara et al., 1997). The LH2b construct contained also the alternatively spliced exon sequence (Valtavaara 1999; Yeowell and Walker, 1999) between nucleotides 1500 and 1501 (SEQ ID NO 25). The constructs were confirmed by sequencing. Insect cells were grown and homogenized as described above.
LH activity was assayed by a method based on the hydroxylation-coupled decarboxylation of 2-oxo(1-^14C)glutarate (Kivirikko and Myllylä 1982), synthetic peptide […] was used as a substrate. GGT activity was assayed as described elsewhere (Myllylä et al. 1975). The method is based on the transfer of radioactively (tritium) labelled glucose from UDP-glucose to galactosylhydroxylysyl residues in calf skin gelatin substrate and on the specific assay of the product of the enzyme reaction after alkaline hydrolysis.

[3] = tested on: hydroxylysyl residues in a calf skin gelatin substrate; assay: GT (galactosyltransferase) activity of recombinant proteins expressed in E. coli; settings: E. coli cell supernatant, FIG. 12
Excerpt: The galactosyltransferase activity can be assayed as described in Myllylä et al. (1975). The method is based on the transfer of radioactively (tritium) labelled galactose from UDP-galactose to hydroxylysyl residues in calf skin gelatin substrate and on the specific assay of the product of the enzyme reaction after alkaline hydrolysis.

[4] = tested on: synthetic peptide IKGIKGIKG; assay: LH activity of human LH isoforms expressed in E. coli; settings: E. coli expression system, data not shown
Excerpt: The lysyl hydroxylase activity can be assayed by a method based on the hydroxylation-coupled decarboxylation of 2-oxo(1-^14C)glutarate (Kivirikko and Myllylä 1982), synthetic peptide […] was used as a substrate.
PFastBacI constructs for human LH1, LH2a, LH2b and LH3 were cleaved with BamHI and Hind III restriction enzymes and coding regions were subcloned into same site in E. coli expression vector pQE30 containing (His)6 tag at the amino terminus. Insert for C. elegans LH (corresponding to amino acids 14-730 in cDNA) was generated by PCR and ligated into SacI-PstI site of pOE30 vector. Constructs were transformed into E. coli XL1-Blue strain. Cultures were grown to OD600 of 0.6 at 37° C. Protein expression was induced by adding 1 mM IPTG and incubation was proceed at 30° C. for 5 hours. Cells were harvested and stored at −20° C. For activity measurements cell pellet was suspended to lysis buffer (0.4 M NaCl, 0.5% Nonident and 20 mM Tris-HCl pH 7.8, at 20° C.) and incubated in the presence of lysozyme (50 μg/ml), DNAase (10 μg/ml) and RNAase (10 μg g/ml) at room temperature for 30 minutes. Lysis was completed by sonication. Cell debris was pelleted and supernatant was used in the measurements.

[5] = tested on: hydroxylysyl residues in a calf skin gelatin substrate; assay: GT activity of recombinant proteins expressed with baculovirus vector in Sf9 cells; settings: baculovirus vector in insect cells, not shown
Experimental: Baculovirus transfer vector pFastBacI in the BAC-TO-BAC™ expression system was used to produce LH3 protein in Sf9 cells. The cDNA construct is in Example 1. The recombinant protein contains the His tag at the amino terminus after signal peptide cleavage. The cells were homogenized as described elsewhere (Valtavaara et al. 1997).
GT and GGT activities were measured by a method based on the transfer of radioactively (tritium)-labeled sugar from UDP-sugar to hydroxylysyl or galactosylhydroxylysyl residues in a calf skin gelatin substrate, respectively (Myllylä et al. 1975). The specific detection of the reaction products was performed after alkaline hydrolysis.

| Molecule | GGT enzyme activity [1] | GGT activity in cell lysates [2] | generation of GT activity [3] | LH activity [4] | generation of GT activity [5] |
| --- | --- | --- | --- | --- | --- |
| B1 | 30.700 dpm/mg soluble protein and 21.000 dpm/mg soluble protein | – | – | – | – |
| B2 | – | none of these recombinant proteins had detectable GGT activity | LH3 was the only one being able to generate GT activity | no LH activity can be found | did not generated GT activity |
